According to US20190284258A1, “HAEMADIPSA SYLVESTRIS ANTITHROMBOTIC PEPTIDE SYLVESTIN AND USE THEREOF” (priority 2016, published 2019):

Target: kallikrein
Test: enzyme inhibition kinetics, chromogenic substrate, OD 405 nm

## TSEPVCACPKMLFWVCGKDGETYTHPCIAKCHNVEVEHDGKCK (modifications not checked) [Haemadipsa sylvestris antithrombotic peptide Sylvestin]
  Ki: 17.8 nM
